# Where a chain is given by its changes, count along the chain named.
# B1: Her3/MetSS_KHSS_M3 (MMP 2 and 9 cleavage site - variant 3), not cleaved (bispecific antibody, human IgG1, kappa)
# heavy 1: not shown
# heavy 2: not shown
# light: DIQMTQTTSSLSASLGDRVTISCRARQDISNYLNWYQRKPDGTVKLLIYYTSRLHSGVPSRFSGSGSGTDYSLTISNLEQEDIATYFCQQGNTFPWTFGGGTKLEIKRTVAAPSVFIFPPSDEQLKSGTASVVCLLNNFYPREAKVQWKVDNALQSGNSQESVTEQDSKDSTYSLSSTLTLSKADYEKHKVYACEVTHQGLSSPVTKSFNRGEC
# notes: Trivalent anti-Her3 IgG with restricted anti-cMet dsFv
# B2: Her3/MetSS_KHSS_M1 (MMP 2 and 9 cleavage site - variant 1), not cleaved (bispecific antibody, human IgG1, kappa)
# heavy 1: not shown
# heavy 2: not shown
# light: B1 light
# notes: as for B1
# B3: Her3/MetSS_KHSS_U (protease cleavage site = uPA cleavage site), not cleaved (bispecific antibody, human IgG1, kappa)
# heavy 1: not shown
# heavy 2: not shown
# light: B1 light
# notes: as for B1
# B4: Her3/MetSS_KHSS_M2 (MMP 2 and 9 cleavage site - variant 2), not cleaved (bispecific antibody, human IgG1, kappa)
# heavy 1: not shown
# heavy 2: not shown
# light: B1 light
# notes: as for B1
# B5: Her3/MetSS_KHSS_M1 after protease cleavage (bispecific antibody)
# heavy 1: not shown
# heavy 2: not shown
# chain: MLSQSGGGGSGGGGSDIQMTQSPSSLSASVGDRVTITCKSSQSLLYTSSQKNYLAWYQQKPGKAPKLLIYWASTRESGVPSRFSGSGSGTDFTLTISSLQPEDFATYYCQQYYAYPWTFGCGTKVEIKR
# light: B1 light
# notes: HC2 is cut in the connector; the VL fragment stays disulfide-linked to VH
# B6: Her3/MetSS_KHSS_M2 after protease cleavage (MMP-2 processed) (bispecific antibody)
# heavy 1: not shown
# heavy 2: not shown
# chain: B5 chain with M1L, L2W, S3A
# light: B1 light
# notes: as for B5
# B7: Her3/MetSS_KHSS_M3 after protease cleavage (bispecific antibody)
# heavy 1: not shown
# heavy 2: not shown
# chain: B5 chain with M1I, L2A, S3G
# light: B1 light
# notes: as for B5
# B8: Her3/MetSS_KHSS_PreSci (protease cleavage site = prescission cleavage site), not cleaved (restricted form) (bispecific antibody, human IgG1, kappa)
# heavy 1: not shown
# heavy 2: not shown
# light: B1 light
# notes: Trivalent: whole anti-Her3 IgG (knobs-into-holes) with one disulfide-stabilized anti-cMet Fv tethered to both CH3 C-termini; Constructs were designed with a leader peptide
# Target: T1, cMet (antigen in the SPR measurements) (UniProt P08581 25-932, limits assumed)
# Experiment: SPR, KD uncleaved against KD after protease cleavage
# T1 sequence (P08581 25-932 limits assumed): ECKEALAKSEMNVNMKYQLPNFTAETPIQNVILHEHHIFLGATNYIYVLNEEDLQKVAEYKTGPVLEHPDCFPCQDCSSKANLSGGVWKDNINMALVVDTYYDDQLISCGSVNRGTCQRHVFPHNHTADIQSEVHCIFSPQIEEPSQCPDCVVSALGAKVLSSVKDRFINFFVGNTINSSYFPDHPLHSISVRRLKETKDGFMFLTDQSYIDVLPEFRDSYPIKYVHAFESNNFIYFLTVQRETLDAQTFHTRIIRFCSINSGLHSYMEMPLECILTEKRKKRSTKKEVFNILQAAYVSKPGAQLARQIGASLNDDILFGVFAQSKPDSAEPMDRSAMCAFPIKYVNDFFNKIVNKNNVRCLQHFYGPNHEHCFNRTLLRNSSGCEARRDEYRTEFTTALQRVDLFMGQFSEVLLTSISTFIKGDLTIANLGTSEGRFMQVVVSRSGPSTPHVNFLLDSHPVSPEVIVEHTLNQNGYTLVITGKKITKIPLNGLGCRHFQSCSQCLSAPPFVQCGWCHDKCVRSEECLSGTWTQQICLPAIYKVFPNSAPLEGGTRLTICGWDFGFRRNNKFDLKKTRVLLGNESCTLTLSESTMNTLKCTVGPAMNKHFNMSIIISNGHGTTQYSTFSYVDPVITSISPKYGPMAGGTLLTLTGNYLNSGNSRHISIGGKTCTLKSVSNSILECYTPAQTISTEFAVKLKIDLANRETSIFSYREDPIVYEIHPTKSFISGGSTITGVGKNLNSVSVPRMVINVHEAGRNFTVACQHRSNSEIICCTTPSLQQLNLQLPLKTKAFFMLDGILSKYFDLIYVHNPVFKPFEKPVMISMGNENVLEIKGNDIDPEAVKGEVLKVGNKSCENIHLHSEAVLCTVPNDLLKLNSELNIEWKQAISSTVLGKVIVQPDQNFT
row,Binder,reduced binding affinity as compared to after the protease cleavage [times]
1,B1,17
2,B2,350
3,B3,6
4,B4,16

# Target: T1, cMet (antigen in the SPR measurements)
# Experiment: SPR; not cleaved; dsFv sterically restricted
row,Binder,Kd [nM]
1,B2,2480

# Target: T1, cMet (antigen in the SPR measurements)
# Experiment: SPR; after protease (MMP2/9) cleavage; dsFv unleashed
row,Binder,Kd [nM]
1,B5,7.08

# Target: HER3 (antigen in the SPR measurements) (UniProt P21860 20-643, limits assumed)
# Experiment: SPR
# HER3 (antigen in the SPR measurements), sequence (P21860 20-643 limits assumed): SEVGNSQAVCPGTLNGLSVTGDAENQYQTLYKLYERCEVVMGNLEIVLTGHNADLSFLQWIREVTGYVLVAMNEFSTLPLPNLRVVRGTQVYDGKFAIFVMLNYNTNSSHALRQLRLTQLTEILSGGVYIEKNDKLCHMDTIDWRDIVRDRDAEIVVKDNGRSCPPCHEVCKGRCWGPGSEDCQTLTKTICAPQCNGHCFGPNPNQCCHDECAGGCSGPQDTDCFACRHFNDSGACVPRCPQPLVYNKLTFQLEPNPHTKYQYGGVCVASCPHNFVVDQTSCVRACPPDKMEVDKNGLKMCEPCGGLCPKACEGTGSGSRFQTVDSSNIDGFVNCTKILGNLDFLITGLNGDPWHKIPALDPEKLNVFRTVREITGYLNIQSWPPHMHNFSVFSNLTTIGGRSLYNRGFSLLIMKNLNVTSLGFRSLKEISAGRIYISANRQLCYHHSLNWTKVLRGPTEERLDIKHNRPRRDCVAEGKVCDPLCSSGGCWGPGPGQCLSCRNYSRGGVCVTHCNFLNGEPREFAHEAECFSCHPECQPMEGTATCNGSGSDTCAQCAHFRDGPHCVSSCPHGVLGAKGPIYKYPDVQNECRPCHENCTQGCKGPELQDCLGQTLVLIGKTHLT
Binder,Kd [nM],koff [s⁻¹],kon [M⁻¹ s⁻¹]
B6,1.85,0.000327,177000
B3,2.34,0.000372,159000
B4,1.92,0.000324,169000

# Target: T1, cMet (antigen in the SPR measurements)
# Experiment: SPR
Binder,Kd [nM],koff [s⁻¹],kon [M⁻¹ s⁻¹]
B1,88.6,0.000263,2970
B5,–,0.00015,21200
B7,5.2,0.000105,20100
B2,–,0.000374,151
B6,7.14,0.000141,19700
B3,20,0.000193,9670
B4,114,0.000417,3650

# Target: T2, Her3 on Her3-expressing, cMet negative T47D cells / Her3-positive cancer cells (UniProt P21860 20-1342, limits assumed)
# T2 construct: whole, on cells
# Experiment: FACS on live T47D cells (cMet-/Her3+); x axis fluorescence (log), y axis % of Max; antibody concentration not shown
# T2 sequence (P21860 20-1342 limits assumed, stated change not applied): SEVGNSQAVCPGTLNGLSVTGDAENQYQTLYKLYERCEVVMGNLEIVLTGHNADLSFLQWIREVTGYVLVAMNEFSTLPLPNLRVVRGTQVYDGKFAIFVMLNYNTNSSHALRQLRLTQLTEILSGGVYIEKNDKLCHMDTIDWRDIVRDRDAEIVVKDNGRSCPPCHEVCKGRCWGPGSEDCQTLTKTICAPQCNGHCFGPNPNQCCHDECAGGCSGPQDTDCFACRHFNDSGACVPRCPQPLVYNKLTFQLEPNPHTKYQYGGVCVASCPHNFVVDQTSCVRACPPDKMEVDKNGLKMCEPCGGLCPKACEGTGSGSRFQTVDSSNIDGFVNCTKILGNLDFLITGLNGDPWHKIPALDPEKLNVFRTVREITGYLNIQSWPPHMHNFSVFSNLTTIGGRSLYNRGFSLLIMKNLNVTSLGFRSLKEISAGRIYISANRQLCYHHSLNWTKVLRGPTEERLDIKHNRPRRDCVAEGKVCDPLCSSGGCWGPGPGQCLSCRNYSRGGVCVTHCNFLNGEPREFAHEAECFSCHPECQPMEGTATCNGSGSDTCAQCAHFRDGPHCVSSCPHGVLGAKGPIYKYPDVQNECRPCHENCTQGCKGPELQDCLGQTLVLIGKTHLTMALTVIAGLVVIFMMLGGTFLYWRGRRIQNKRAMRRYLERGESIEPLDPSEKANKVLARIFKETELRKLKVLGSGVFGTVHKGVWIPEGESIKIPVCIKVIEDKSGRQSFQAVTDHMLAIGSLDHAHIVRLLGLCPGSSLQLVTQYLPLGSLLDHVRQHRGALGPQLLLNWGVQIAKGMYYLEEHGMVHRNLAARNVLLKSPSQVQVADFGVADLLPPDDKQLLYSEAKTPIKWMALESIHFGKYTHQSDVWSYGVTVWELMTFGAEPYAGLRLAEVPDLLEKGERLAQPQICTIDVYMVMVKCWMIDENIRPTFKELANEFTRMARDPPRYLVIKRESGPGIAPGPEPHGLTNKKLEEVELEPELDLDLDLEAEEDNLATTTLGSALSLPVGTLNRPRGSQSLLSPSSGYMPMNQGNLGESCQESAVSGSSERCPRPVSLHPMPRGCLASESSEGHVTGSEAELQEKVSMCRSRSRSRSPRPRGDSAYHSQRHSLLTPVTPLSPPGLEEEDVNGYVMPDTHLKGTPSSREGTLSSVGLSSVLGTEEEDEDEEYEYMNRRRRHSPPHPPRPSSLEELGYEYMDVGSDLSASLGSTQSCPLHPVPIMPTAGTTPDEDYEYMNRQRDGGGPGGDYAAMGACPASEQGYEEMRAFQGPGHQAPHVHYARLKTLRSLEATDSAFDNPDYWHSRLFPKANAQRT
row,Binder,binding result
1,B8,binds

# Target: T1, cMet (antigen in the SPR measurements)
# Experiment: SPR, cleaved against restricted form
row,Binder,fold improvement of affinity by MMP processing [fold]
1,B5,> 5
2,B7,> 5
3,B6,> 5
